Measurements: US12723100 (CSPC MEGALITH BIOPHARMACEUTICAL, dated 2026)

T1: cynomolgus monkey Nectin-4 (cynomolgus monkey, UniProt Q96NY8 32-510 (human entry))
T1 construct: Transiently expressed on 293T cells; also called Cyno Nectin-4
T1 chain: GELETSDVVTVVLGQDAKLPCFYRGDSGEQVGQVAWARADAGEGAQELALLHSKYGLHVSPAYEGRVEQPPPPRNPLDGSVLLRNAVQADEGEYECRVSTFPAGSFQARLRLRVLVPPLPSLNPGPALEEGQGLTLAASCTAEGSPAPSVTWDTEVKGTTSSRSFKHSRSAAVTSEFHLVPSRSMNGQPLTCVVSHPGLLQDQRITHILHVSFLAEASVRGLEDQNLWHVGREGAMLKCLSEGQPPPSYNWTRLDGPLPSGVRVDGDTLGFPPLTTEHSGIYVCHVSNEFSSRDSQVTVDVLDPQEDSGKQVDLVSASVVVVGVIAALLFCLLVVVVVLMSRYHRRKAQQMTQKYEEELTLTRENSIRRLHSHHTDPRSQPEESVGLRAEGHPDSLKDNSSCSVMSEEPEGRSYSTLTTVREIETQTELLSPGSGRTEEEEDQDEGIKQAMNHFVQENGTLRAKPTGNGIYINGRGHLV

T2: full-length human Nectin-4 on cells (human, UniProt Q96NY8 32-510)
T2 sequence: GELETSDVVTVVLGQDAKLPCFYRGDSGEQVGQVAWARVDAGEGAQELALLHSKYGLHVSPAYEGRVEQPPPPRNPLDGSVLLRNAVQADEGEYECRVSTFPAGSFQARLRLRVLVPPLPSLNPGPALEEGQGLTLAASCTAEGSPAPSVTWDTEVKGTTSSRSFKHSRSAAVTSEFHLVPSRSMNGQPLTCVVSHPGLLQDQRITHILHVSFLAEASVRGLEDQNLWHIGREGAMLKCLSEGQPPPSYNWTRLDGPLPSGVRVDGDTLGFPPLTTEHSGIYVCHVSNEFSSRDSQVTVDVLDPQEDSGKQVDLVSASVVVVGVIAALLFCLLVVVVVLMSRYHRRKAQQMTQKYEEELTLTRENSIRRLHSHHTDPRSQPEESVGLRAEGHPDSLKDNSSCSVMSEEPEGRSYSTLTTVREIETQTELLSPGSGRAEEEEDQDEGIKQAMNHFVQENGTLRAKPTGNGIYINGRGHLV

T3: recombinant human Nectin4-His protein (human, UniProt Q96NY8 32-349)
T3 construct: Analyte of the SPR assay; May be the same protein as m12; also called human Nectin-4 ECD; not shown: His tag
T3 sequence: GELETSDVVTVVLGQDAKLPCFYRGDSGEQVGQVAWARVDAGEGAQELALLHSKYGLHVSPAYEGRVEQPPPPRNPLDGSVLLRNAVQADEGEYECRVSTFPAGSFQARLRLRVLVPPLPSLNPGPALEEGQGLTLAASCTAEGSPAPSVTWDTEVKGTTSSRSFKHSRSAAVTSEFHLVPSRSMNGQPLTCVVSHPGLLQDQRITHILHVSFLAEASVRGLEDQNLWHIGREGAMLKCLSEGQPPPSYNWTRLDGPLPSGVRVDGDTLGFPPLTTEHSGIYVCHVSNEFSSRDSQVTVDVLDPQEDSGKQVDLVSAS


Experiments:
[1] = target: T1, cynomolgus monkey Nectin-4; assay: flow cytometry, transfected 293T cells; +++ EC50 less than 5 nM
Experimental: CDNAs encoding Nectin-4 protein from cynomolgus monkey (SEQ ID NO: 62), rat (SEQ ID NO: 63), or mouse (SEQ ID NO: 64) were separately cloned into a pcDNA3.1-based mammalian expression plasmid. The respective plasmids were transfected to human 293T cells in a similar way described in Example 6. The binding EC50 of disclosed human Nectin-4 antibodies to species-specific Nectin-4 transiently expressed on 293T cell surface was measured by flow cytometry.

[2] = target: T2, full-length human Nectin-4 on cells; assay: cell-based or functional assay
[3] = target: T3, recombinant human Nectin4-His protein; assay: SPR (BIAcore 3000), antibody captured by anti-human IgG, Nectin4-His as analyte
Experimental: The binding kinetics of the disclosed anti-Nectin-4-specific antibodies to recombinant human Nectin-4 was determined by Surface plasmon resonance (SPR) using BIAcore 3000 system. Briefly, CM5 chip was immobilized via amine coupling chemistry with anti-human IgG antibody (GE, Cat No BR-1000-12, lot 10283568) following the application wizards on Flow cell 4. Flow cell 3 remained unmodified to serve as a reference cell for subtraction of systematic instrument noise and drift. Run Fc4-3 detection with double blank (Fc3 and blank analyte buffer). Antibody samples were diluted to 1 ug/mL in HBS-EP and injected at a flow rate of 10 ul/min for 1 minute. Analyte recombinant human Nectin4-His protein was diluted from 10 to 0.156 nM ([…], 5 points to 0 nM in HBS-EP buffer) and injected at 50 uL/minute for 2 minutes, followed by 6 minutes dissociation. All the analyses were performed with double blanks, Fc3 and blank analyte buffer, to reduce the background. Data were analyzed using BIAevaluation software (version 4.1.1) by 1:1 binding with mass transfer model with global fit to determine apparent binding kinetics.

[4] = target: T2, full-length human Nectin-4 on cells; assay: flow cytometry competition on CHO-Nectin-4 cells; competitor biotinylated human Nectin-1-His
Experimental: The ability of disclosed Nectin4-specific antibodies to block Nectin-1 binding to Nectin-4 expressing cells (CHO cells transfected with human Nectin-4) was determined by FACS. Briefly, CHO-Nectin-4 cells were incubated with dilutions of the disclosed Nectin-4 purified recombinant antibodies. Then, biotinylated human Nectin-1 with His tag (ACROBiosystems, catalog number: PV1-H5223, lot: 733-38GS1-47, 0.75 ug/ml) was added to the plate. After 30-minute incubation, cells were washed, followed by adding Streptavidin Alexa 647 (1:1000) to the samples. After a 30 minute incubation, the samples were analyzed on a flow cytometry instrument (Intellicyte, IQue plus, Sartorius) for Nectin-1 blocking activity. The positive control antibody used in this blocking assay is a reference antibody (known to be a recombinant Nectin-4 specific antibody, made by Novarock Biotherapeutics, lot: 03042020KD).

EC50 [1]	Kd [3]	EC50 [4]	Binder	Endocytosis EC50 (cell killing with MMAF-conjugated Fab anti-hFc), Nectin-4-CHO cells [2]	Endocytosis EC50 (cell killing with MMAF-conjugated Fab anti-hFc), SKBR3 cells [2]
< 5 nM	1.25 nM	0.78 nM	N4_mAb 1 (antibody, human IgG1, V domains shown, Tested as chimera (murine variable regions, human IgG1/kappa constants); not shown: human IgG1 constant region (Uniprot P01857); human Kappa light chain constant region (UniProt P01834)) VH: QVQLKQSGPGLVQPSQSLSITCTVSGFSLTNYGVNWVRQPPGKGLEWLGVIWSGGSTDYNAAFISRLSISKDISKSQVFFKMNSLQADDTAKYYCAREGYDGYAMDYWGQGTSVTVSS VL: DIQMTQSPASLSVSVGETVTITCRASENIFSSLAWYQQKQGKSPQLLVYGATNLADGVPSRFSGSGSGTQYSLKINSLQSEDFGTYWCQHFWGNPWTFGGGTKLEIK	0.36 nM	2.14 nM
< 5 nM	17.2 nM	0.3 nM	N4_mAb 3 (antibody, human IgG1, V domains shown, Tested as chimera (human IgG1/kappa constants); not shown: human IgG1 constant region (Uniprot P01857); human Kappa light chain constant region (UniProt P01834)) VH: EVQLQQSGAELVKPGASVKLSCTVSGFNIKDTYMHWVKQRPEQGLEWIGRIDPANGNTKYDPKFQGKATIIADKASNTAYLQLSSLTSEDAAVYYCAHYYGSSYFAMDCWGQGTSVTVSS VL: DIVMTQSHKFMSTSVGDRVSITCKASQDVSTAVAWYQQKPGQSPKLLIYWASTRHTGVPDRFTGSGSGTDYTLTISSVQTEDLALYYCQQHYSTPLTFGAGTKLELK	0.53 nM	0.63 nM
< 5 nM	0.392 nM	0.12 nM	N4_mAb 6 (antibody, human IgG1, V domains shown, Tested as chimera (murine variable regions, human IgG1/kappa constants); not shown: human IgG1 constant region (Uniprot P01857); human Kappa light chain constant region (UniProt P01834)) VH: QVQLQQSGPELVKPGASVRISCKASGYTFTTYYIHWVKQRPGQGLEWIGWIYPGNVNTKYTENFKDKATLTADKSSSTAYMQLSSLTSEDSAVYFCARGLYYFDFWGQGTTLTVSS VL: SIVMTQTPKFLLVSAGDRVTITCKASQSVNNDVAWYQQKPGQSPKLLIYYASNRDTGVPDRFTGSGFGTDFTFTISSVQAEDLAVYFCQQDYSSPYTFGGGTKLEIK	0.44 nM	1.78 nM
< 5 nM	0.375 nM	0.33 nM	N4_mAb 8 (antibody, human IgG1, V domains shown, Tested as chimera (murine variable regions, human IgG1/kappa constants); not shown: human IgG1 constant region (Uniprot P01857); human Kappa light chain constant region (UniProt P01834)) VH: QVQLQQSGPVLVKPGASVRISCKASGYTFTSYYIHWVKQRPGQGLEWIGWIYPGNVNTKYNENFRDKATLTADKSSSTSYMQLSSLTSEDSAVYFCARGIYYFDYWGQGTTLTVSS VL: IIVMTQTPKFLLVSAGDRVTITCKASQSVNNDVAWYQEKPGQSPKLLIYYASNRDTGVPDRFTGSGYGTDFTFTISTVQAEDLAVYFCHQDYSSPFTFGSGTKLEIK	0.43 nM	0.99 nM
< 5 nM	0.39 nM	0.21 nM	N4_mAb 7 (antibody, human IgG1, V domains shown, Tested as chimera (murine variable regions, human IgG1/kappa constants); not shown: human IgG1 constant region (Uniprot P01857); human Kappa light chain constant region (UniProt P01834)) VH: QVQLQQSGPELVKPGASVKMSCKASGYTFTTYYIHWVKQRPGQGLEWIGWIYPGNAGIKSNEKFKGKTTLTADKSSSTAYMLLSSLTSEDSAIYFCARGVYFFDYWGQGTTLTVSS VL: SIVMTQTPKFLLVSAGDRVTITCKASQSVNNDVSWFQQKPGQSPKLLIYYASNRYTGVPDRFSGSGYGTDFTFTITTVQAEDLAVYFCQQDYSSPYTFGGGTKLEIK	0.21 nM	0.61 nM
< 5 nM	1.26 nM		N4_mAb 4 (antibody, human IgG1, V domains shown, Tested as chimera (human IgG1/kappa constants); not shown: human IgG1 constant region (Uniprot P01857); human Kappa light chain constant region (UniProt P01834)) VH: DVQLQESGPDLVKPSQSLSLTCTVTGYSITSAYNWHWIRQFPGNKLEWMGYIHYSGRTNYNPSLKSRISITRDTSKNQFFLQLNSLTTEDTATYYCARWITTATGWYLDVWGAGTTVTVSS VL: not shown	0.63 nM	1.58 nM
< 5 nM	1.58 nM	0.5 nM	N4_mAb 5 (antibody, human IgG1, V domains shown, Tested as chimera (human IgG1/kappa constants); not shown: human IgG1 constant region (Uniprot P01857); human Kappa light chain constant region (UniProt P01834)) VH: EVQLQQSGPDLVKPGASVKISCKASGYSFTGHYMHWVKQSHGKSLEWIGRVNPNNGGSSYNQKFKDKAILTVDKSSTTAYMELRSLTSEDSAVYYCARDPLGGSYGFAYWGQGTLVTVSA VL: DIVLTQSPASLAVSLGQRATISCRASQSVTTSSYSYMHWYQQKPGQPPKLLIKYASNLESGVPARFSGSGSGTDFTLNIHPVEEEDTATYYCQHSWEIPYTFGGGTKLEMK	0.45 nM	0.85 nM
< 5 nM	0.884 nM	0.64 nM	N4_mAb 2 (antibody, human IgG1, V domains shown, Tested as chimera (human IgG1/kappa constants); not shown: human IgG1 constant region (Uniprot P01857); human Kappa light chain constant region (UniProt P01834)) VH: QVQLKQSGPNLVQPSQSLSITCTVSGFSLTTYGAHWVRQSPGKGLEWLGVIWRGGSTDYNAAFMSRLSITKDNSKSQVFFKMNSLQADDTAIYYCAKIGYDGYAMDNWGQGTSVTVSS VL: DFQVTQSPASLSASVGETVTITCRTSENIHNYLAWYQQKQGKSPQLLVYNAKTLADGVPSRFSGSGSGTQYSLKINSLQPEDFGTYYCQHFWSSPWTFGGGTKLEIK	0.56 nM	0.74 nM
